Experimental data from patent publication US20130251702A1, “METHOD FOR SCREENING COMPOUNDS FOR TREATING SEPSIS TARGETING NOD2 SIGNALLING PATHWAY AND COMPOSITION FOR TREATING SEPSIS COMPRISING NOD2 SIGNALLING PATHWAY INHIBITORS” (SNU R&DB FOUNDATION, priority 2012, published 2013).

How the values were obtained:
[1] = system: NOD2-mediated IL-1β and IL-10 production; experiment: Peritoneal immune cells cultured with SB203580 and/or MDP, IL-1β and IL-10 measured in culture; format: cell-based, mice
Experimental: (§1) Concentrations of IL-1β, IL-6, IL-10, IFN-γ, TNF-α and C5a in serum and peritoneal fluid were measured in CLP-induced sepsis mice. All cytokines were measured using a BD Bioscience ELISA kit according to the manufacturer's instructions. Colorimetric reactions were stopped by adding 3 N HCl, and the optical absorbance at 450 and 570 nm was determined using a spectrophotometer.
To investigate the mechanism by which NOD2 enhances C5 generation during polymicrobial infection, serum and peritoneal levels of various cytokines in WT and Nod2^−/− mice were estimated after CLP. […] To confirm whether NOD2-mediated signals induce IL-1β and IL-10 production by immune cells, peritoneal cells from WT and Nod2^−/− mice were cultured with MDP, a NOD2 agonist. […] Among immune cells, monocytes, granulocytes, and dendritic cells, but not T or B cells, express NOD 2 (Gutierrez, O. et al. Induction of Nod2 in myelomonocytic and intestinal epithelial cells via nuclear factor-kappa B activation. J Biol Chem 277, 41701-41705 (2002)).
Upon activation, NOD2 oligomerizes and recruits the nuclear factor (NF)-κB-activating kinase receptor-interacting protein 2 (RIP2) via a homotypic CARD-CARD (caspase recruitment domain) interaction, triggering IκB phosphorylation and NF-κB activation.

RIP2 = target: T1, RIP2 (Mus musculus, UniProt P58801); experiment: Blot of RIP2 phosphorylation in peritoneal immune cells during CLP-induced sepsis; format: in vivo; details: WT mice, SB203580 50 μg/mouse i.p.
T1 construct: reduced phosphorylation of RIP2 and P38 in peritoneal immune cells; endogenous in cells

CLP-induced sepsis mice = experiment: Serum and peritoneal cytokine and complement levels (ELISA) in CLP-induced sepsis mice; format: in vivo; details: for serum and peritoneal C5a generation: WT or Nod2−/− mice, recombinant cytokine 4 h or 12 h after CLP
Experimental: (§2) To deplete Gr-1^+cells in vivo, WT B6 or NOD2−/− mice were i.p. injected with anti-Gr-1 mAb (160 μg/injection) (BD Bioscience, Sparks, Md., USA) 2 and 3 days prior to CLP. Recombinant mouse (mr) IL-1β (40 μg/mouse) or IL-10 (30 μg/mouse) (ProSpec-Tany TechnoGene, Rehovot, Israel) was i.p. injected into WT or Nod2^−/− mice 4 or 12 h after CLP, respectively. mrC5a (5 μg/injection) or anti-05a mAb (100 μg/injection) (R&D Systems Inc., Minneapolis, Minn., USA) was i.p. injected into WT or Nod2^−/− mice 4 and 12 h after CLP.
as §1

CD55 = CD55 expression on Ly6-G+ peritoneal cells (flow cytometry) after CLP; format: in vivo, mice
Experimental: as §2
PLF cells were incubated with antibodies on ice for 30 min in 100 μl of staining buffer (0.5% BSA). FITC-conjugated anti-Ly-6G, phycoerythrin (PE)-conjugated anti-CD4 mAb, PE-conjugated anti-CD8, PE-conjugated anti-MHC class II, FITC-conjugated anti-CD80, FITC-conjugated anti-CD86, FITC-conjugated anti-annexin V mAbs, and 7AAD (7-amino-actinomycin D) were purchased from BD Biosciences. PE Cy5- or Alexa 647 (eBioscience, San Diego, Calif., USA)-conjugated anti-F4/80 mAb was used. Stained cells were then run on an LSR II and FACs caliber (BD Bioscience) and analyzed using Flowjo software (Treestar, Ashland, Oreg., USA).

CLP-induced sepsis = experiment: Survival in CLP-induced sepsis; format: in vivo, mice; details: for survival during CLP-induced sepsis: WT mice injected with recombinant protein after CLP
Experimental: as §2
Survival data were plotted as Kaplan-Meier survival curves and analyzed using the log-rank test. Statistical significance was analyzed using Prism 5.0 (GraphPad Software Inc, San Diego, Calif., USA). One-way and two-way analyses of variance (ANOVA) and t-tests was performed, and a post hoc test was used if P<0.05. Data are expressed as the mean±standard error of the mean.

[2] = cited from earlier work
peritoneal immune cells = experiment: Responsiveness of peritoneal immune cells from CLP mice against LPS (cytokine production LPS vs PBS); format: in vivo; details: for LPS-mediated cytokine production by peritoneal immune cells: cells from Nod2−/− mice with CLP
Experimental: as §2
(§3) During bacterial septic shock, C5a triggers coagulopathy and neutrophil dysfunction, thereby defective bacterial clearance and cytokine production (Ward, P. A. The dark side of C5a in sepsis. Nat Rev Immunol 4, 133-142 (2004)). Therefore, to estimate C5a effects on immune responses in WT B6 and Nod2^−/− mice during infection, we examined the responsiveness of immune cells against lipopolysaccharide (LPS) and macrophage phagocytic activity, bacteria colony-forming units (CFUs), and levels of serum D-dimer after CLP. To estimate the responsiveness of peritoneal immune cells against LPS, peritoneal cells obtained from B6 or Nod2^−/− mice 24 h after CLP were stimulated with LPS or PBS (FIG. 1C). The responsiveness of peritoneal immune cells against LPS was determined by estimating ratios of individual cytokines produced against LPS versus PBS. Peritoneal immune cells obtained from Nod2^−/− mice 24 h after CLP produced higher IL-1β, IL-6, and TNF-αlevels against LPS than did WT peritoneal cells. The levels of serum D-dimer in Nod2^−/− mice were lower than those in WT mice (FIG. 1D). However, peritoneal cells obtained from Nod2^−/− mice engulfed more FITC-conjugated Escherichia coli than did WT peritoneal cells (FIG. 1E). Consistent with these findings, bacteria CFU levels in the blood and liver homogenates were higher in WT B6 mice than in Nod2^−/− mice (FIG. 1F). Recombinant C5a administration to Nod2^−/− mice with CLP reversed cytokine production by peritoneal immune cells and serum D-dimer levels, but not phagocytosis activity and bacterial CFUs.

[3] = Serum D-dimer levels after CLP; format: in vivo; details: Nod2−/− mice with CLP
From the text: as §3, with “Recombinant C5a administration to Nod2^−/− mice with CLP reversed cytokine production by peritoneal immune cells and serum D-dimer levels, but not phagocytosis activity and bacterial CFUs.” left out

bacteria = experiment: Bacterial CFUs in blood and liver homogenates after CLP; format: in vivo; details: Nod2−/− mice with CLP
Experimental: Bacterial CFUs were determined by plating serial dilutions of blood and liver homogenates onto blood agar plates (Hanil Komed, Seoul, Korea), which were incubated in 5% CO2 at 37° C. overnight. The number of colonies was counted 18 h later.

peritoneal cells = experiment: Bacterial phagocytosis by peritoneal immune cells (FITC-labeled E. coli); format: in vivo; details: Nod2−/− mice with CLP
Experimental: Peritoneal fluid cells of WT B6 or Nod2^−/− mice were cultured with FITC-labeled E. coli (Invitrogen, Carlsbad, Calif., USA) for 15 min. Cells attached on the plates were washed with warm PBS three times and then treated with 0.2% trypan blue for 1 min at room temperature. Cells were fixed with 4% formalin for 15 min and cultured with FITC-labeled E. coli. to estimate nonspecific binding of E. coli on the cell surface. These cells, which were cultured with FITC-labeled E. coli, were then run on the FACs caliber machine and analyzed with Flowjo software.

[4] = WT mice peritoneal immune cells, SB203580 20 nM, MDP 20 μg/ml, 24 h
[5] = WT mice, CLP, SB203580 50 μg/mouse i.p.
[6] = 73 patients treated, Critical Care Medicine 2009
[7] = Nod2−/− mice injected with recombinant protein after CLP
[8] = Nod2−/− mice, polymicrobial infection

T1 sequence (P58801 whole entry): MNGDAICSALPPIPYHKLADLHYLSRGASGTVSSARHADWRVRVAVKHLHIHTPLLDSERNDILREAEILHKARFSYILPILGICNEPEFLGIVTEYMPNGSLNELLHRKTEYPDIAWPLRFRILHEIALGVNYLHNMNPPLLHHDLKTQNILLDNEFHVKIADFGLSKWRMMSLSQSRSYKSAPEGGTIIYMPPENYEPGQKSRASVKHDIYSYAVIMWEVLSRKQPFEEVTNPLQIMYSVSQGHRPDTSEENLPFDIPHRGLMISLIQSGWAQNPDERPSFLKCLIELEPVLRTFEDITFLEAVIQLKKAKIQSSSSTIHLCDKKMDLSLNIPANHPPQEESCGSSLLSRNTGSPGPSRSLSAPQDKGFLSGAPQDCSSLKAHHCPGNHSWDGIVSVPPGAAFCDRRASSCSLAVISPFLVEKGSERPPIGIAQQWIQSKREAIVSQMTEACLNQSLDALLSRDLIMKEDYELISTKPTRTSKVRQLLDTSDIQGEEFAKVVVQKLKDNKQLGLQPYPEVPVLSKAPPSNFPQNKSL

## CC(=O)N[C@@H]1[C@@H](O[C@H](C)C(=O)N[C@@H](C)C(=O)N[C@H](CCC(=O)O)C(N)=O)[C@H](O)[C@@H](CO)O[C@H]1O [MDP]
[1]; NOD2-deficient cells
  IL-1β production upon MDP treatment: minimally produced
  IL-10 production upon MDP treatment: minimally produced
[1]; WT peritoneal immune cells
  IL-1β production upon MDP treatment: produced
  IL-10 production upon MDP treatment: produced

## C[S+]([O-])c1ccc(-c2nc(-c3ccncc3)c(-c3ccc(F)cc3)[nH]2)cc1 (centres unmarked) [SB203580, reference compound]
[1]; [4]
  MDP-mediated IL-1β production by peritoneal cells: decreased
  MDP-mediated IL-10 production by peritoneal cells: decreased
RIP2
  phosphorylation of RIP2 in peritoneal immune cells: reduced
CLP-induced sepsis mice; [5]
  levels of serum and peritoneal C5a during sepsis: reduced
  levels of serum and peritoneal IL-1β during sepsis: reduced
  levels of serum and peritoneal IL-10 during sepsis: reduced
CD55; [5]
  CD55 expression levels of Ly6-G+ granulocytes: reduced
CLP-induced sepsis; WT mice injected with SB203580, FIG. 6 legend
  CLP-induced sepsis: attenuates
CLP-induced sepsis; WT mice, SB203580 50 μg/mouse i.p. vs PBS
  survival rates during CLP-induced sepsis: increased

## Drotrecogin alfa [Xigris]
[2]; [6]
  fatality: increased
  hemorrhage: severe hemorrhage had occurred
[2]; pediatric patients with severe blood infection
  severe side effect in clinical trial: cerebral hemorrhage

B1: recombinant C5a: recombinant mouse C5a, i.p. injected 5 μg/injection (protein, UniProt P06684 679-755, looked up)
C5a anaphylatoxin: NLHLLRQKIEEQAAKYKHSVPKKCCYDGARVNFYETCEERVARVTIGPLCIRAFNECCTIANKIRKESPHKPVQLGR
modifications: C5a anaphylatoxin
notes: recombinant mouse C5a, i.p. injected 5 μg/injection
CLP-induced sepsis; [7]
  survival rates during CLP-induced sepsis: decreased
CLP-induced sepsis
  survival during CLP-induced sepsis: did not cause survival changes
Peritoneal immune cells
  LPS-mediated cytokine production by peritoneal immune cells: reversed
[3]
  serum D-dimer levels: reversed
bacteria
  bacterial CFUs in the blood or liver homogenates: not

B2: recombinant IL-1β: Recombinant mouse (mr) IL-1β, 40 μg/mouse i.p. (protein, UniProt P10749 118-269, looked up)
Interleukin-1 beta: VPIRQLHYRLRDEQQKSLVLSDPYELKALHLNGQNINQQVIFSMSFVQGEPSNDKIPVALGLKGKNLYLSCVMKDGTPTLQLESVDPKQYPKKKMEKRFVFNKIEVKSKVEFESAEFPNWYISTSQAEHKPVFLGNNSGQDIIDFTMESVSS
CLP-induced sepsis mice; Il-10−/− mice with CLP
  C5a levels during polymicrobial infection: not altered
CLP-induced sepsis mice; Nod2−/− mice, polymicrobial infection (CLP)
  serum and peritoneal IL-10 levels: enhanced
CLP-induced sepsis mice
  serum and peritoneal C5a generation: enhanced
CD55; Il-10−/− mice
  CD55 expression on F4/80−Ly6-G+ peritoneal cells: did not decrease
CD55; [8]
  CD55 expression on F4/80−Ly6-G+ peritoneal cells: decreased
CLP-induced sepsis; [7]
  survival rates during CLP-induced sepsis: reduced
CLP-induced sepsis
  survival during CLP-induced sepsis: did not affect
Peritoneal immune cells; cells from Il-10−/− mice with CLP
  LPS-induced cytokine production by peritoneal immune cells: did not alter
Peritoneal immune cells
  LPS-mediated cytokine production by peritoneal immune cells: suppressed
Peritoneal cells
  phagocytosis of bacteria by peritoneal cells: reduced
bacteria
  bacterial CFUs in the blood or liver homogenates: reduced

B3: recombinant IL-10: Recombinant mouse IL-10, 30 μg/mouse i.p. (protein, UniProt P18893 19-178, looked up)
Interleukin-10: SRGQYSREDNNCTHFPVGQSHMLLELRTAFSQVKTFFQTKDQLDNILLTDSLMQDFKGYLGCQALSEMIQFYLVEVMPQAEKHGPEIKEHLNSLGEKLKTLRMRLRRCHRFLPCENKSKAVEQVKSDFNKLQDQGVYKAMNEFDIFINCIEAYMMIKMKS
CLP-induced sepsis mice
  serum and peritoneal C5a generation: enhanced
CD55; [8]
  CD55 expression on F4/80−Ly6-G+ peritoneal cells: decreased
CLP-induced sepsis; [7]
  survival rates during CLP-induced sepsis: reduced
CLP-induced sepsis
  survival during CLP-induced sepsis: did not affect
Peritoneal immune cells
  LPS-mediated cytokine production by peritoneal immune cells: suppressed
bacteria
  bacterial CFUs in the blood or liver homogenates: not
